Measurements published in publication PMC3992927 (Cancer discovery, 2014).
Where a chain is given by its changes, count along the chain named.

What was measured:
[1] = target: T1, myc epitope-tagged RNF31 Q584H (human, UniProt Q96EP0-1 1-1072, Q584H); test: co-IP
T1 sequence (looked up): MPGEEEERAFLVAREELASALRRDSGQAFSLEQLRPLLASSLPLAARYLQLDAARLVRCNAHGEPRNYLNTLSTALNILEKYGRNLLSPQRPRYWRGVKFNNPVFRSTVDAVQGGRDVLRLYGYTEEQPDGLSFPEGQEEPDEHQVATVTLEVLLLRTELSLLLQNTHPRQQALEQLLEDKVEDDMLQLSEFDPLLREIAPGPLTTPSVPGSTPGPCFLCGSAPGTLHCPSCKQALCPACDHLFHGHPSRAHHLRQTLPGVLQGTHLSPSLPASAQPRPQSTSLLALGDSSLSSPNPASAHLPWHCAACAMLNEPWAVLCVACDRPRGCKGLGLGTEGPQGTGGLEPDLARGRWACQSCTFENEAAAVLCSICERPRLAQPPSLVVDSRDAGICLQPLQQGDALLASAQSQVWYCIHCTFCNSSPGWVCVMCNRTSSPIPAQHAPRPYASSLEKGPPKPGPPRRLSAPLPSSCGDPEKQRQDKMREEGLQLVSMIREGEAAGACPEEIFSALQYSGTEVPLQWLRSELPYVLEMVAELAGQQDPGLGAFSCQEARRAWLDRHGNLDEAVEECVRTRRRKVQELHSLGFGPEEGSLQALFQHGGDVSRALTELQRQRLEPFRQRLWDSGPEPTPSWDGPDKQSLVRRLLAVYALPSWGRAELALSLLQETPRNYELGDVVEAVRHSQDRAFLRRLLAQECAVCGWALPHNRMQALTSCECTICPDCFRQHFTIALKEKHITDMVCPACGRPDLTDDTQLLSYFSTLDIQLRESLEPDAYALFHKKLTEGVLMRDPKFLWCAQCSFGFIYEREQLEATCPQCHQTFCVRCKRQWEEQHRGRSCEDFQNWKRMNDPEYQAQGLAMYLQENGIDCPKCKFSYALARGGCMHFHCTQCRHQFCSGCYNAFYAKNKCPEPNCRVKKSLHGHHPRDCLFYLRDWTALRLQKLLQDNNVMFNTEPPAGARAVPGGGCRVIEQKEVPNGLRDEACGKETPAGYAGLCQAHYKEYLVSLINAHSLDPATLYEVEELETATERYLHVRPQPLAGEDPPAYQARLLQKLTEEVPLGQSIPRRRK

[2] = target: T2, myc epitope-tagged RNF31 Q622L (human, UniProt Q96EP0-1 1-1072, Q622L); test: co-IP
T2 sequence (looked up): T1 sequence (looked up) with H584Q, Q622L

B1: RBCK1 (natural protein, human (endogenous in HBL1), UniProt Q9BYM8-1 1-510, looked up)
chain: MDEKTKKAEEMALSLTRAVAGGDEQVAMKCAIWLAEQRVPLSVQLKPEVSPTQDIRLWVSVEDAQMHTVTIWLTVRPDMTVASLKDMVFLDYGFPPVLQQWVIGQRLARDQETLHSHGVRQNGDSAYLYLLSARNTSLNPQELQRERQLRMLEDLGFKDLTLQPRGPLEPGPPKPGVPQEPGRGQPDAVPEPPPVGWQCPGCTFINKPTRPGCEMCCRARPEAYQVPASYQPDEEERARLAGEEEALRQYQQRKQQQQEGNYLQHVQLDQRSLVLNTEPAECPVCYSVLAPGEAVVLRECLHTFCRECLQGTIRNSQEAEVSCPFIDNTYSCSGKLLEREIKALLTPEDYQRFLDLGISIAENRSAFSYHCKTPDCKGWCFFEDDVNEFTCPVCFHVNCLLCKAIHEQMNCKEYQEDLALRAQNDVAARQTTEMLKVMLQQGEAMRCPQCQIVVQKKDGCDWIRCTVCHTEICWVTKGPRWGPGGPGDTSGGCRCRVNGIPCHPSCQNCH
fold co-immunoprecipitation relative to wild type RNF31 [1]: 1.4 fold | fold co-immunoprecipitation relative to wild type RNF31 [2]: 2.07 fold
